EC50 and IC50 data for one substance are collected here from patent US20240092908A1.

Test [1] deals with fusion protein hPD1-HSA composed of a PD1 extracellular domain sequence and a human serum albumin sequence (human). Put plainly: ELISA, hPD1-HSA coated 200 ng/well, HRP anti-human IgG Fc. In general terms: In an ELISA, binding on a coated surface is turned into a signal by an enzyme label.
Test [2] has the same target. In words: competitive ELISA, hPD1-HSA coated; competitor bio-hPDL1-FC, HRP-Streptavidin.

Broadly, the EC50 is the concentration that produces a half-maximal response. In general, IC50 refers to the point on the concentration scale where inhibition reaches its midpoint. Read a high IC50 as lower potency. On to Keytruda ® (antibody), for which the half-maximal effective concentration (EC50) in test [1] stood at 0.181 nM. For the same substance, the IC50 in test [2] amounted to 1.72 nM.
